Results on one molecule are retold here after article PMC6555802, “CHML promotes liver cancer metastasis by facilitating Rab14 recycle” (Nature Communications, 2019).

This test concerns the target T1, Rab14 (fluorescence titration) (human, UniProt P61106 1-215).
T1 construct: Rab14
The test is described as follows: other fluorescence titration; fluorescence titration assay (Supplementary Fig. 8); conditions not stated in the text shown. To be noted: both partners purified.

B1: CHML (fluorescence titration) (natural protein)
chain: MADNLPTEFDVVIIGTGLPESILAAACSRSGQRVLHIDSRSYYGGNWASFSFSGLLSWLKEYQQNNDIGEESTVVWQDLIHETEEAITLRKKDETIQHTEAFCYASQDMEDNVEEIGALQKNPSLGVSNTFTEVLDSALPEESQLSYFNSDEMPAKHTQKSDTEISLEVTDVEESVEKEKYCGDKTCMHTVSDKDGDKDESKSTVEDKADEPIRNRITYSQIVKEGRRFNIDLVSKLLYSQGLLIDLLIKSDVSRYVEFKNVTRILAFREGKVEQVPCSRADVFNSKELTMVEKRMLMKFLTFCLEYEQHPDEYQAFRQCSFSEYLKTKKLTPNLQHFVLHSIAMTSESSCTTIDGLNATKNFLQCLGRFGNTPFLFPLYGQGEIPQGFCRMCAVFGGIYCLRHKVQCFVVDKESGRCKAIIDHFGQRINAKYFIVEDSYLSEETCSNVQYKQISRAVLITDQSILKTDLDQQTSILIVPPAEPGACAVRVTELCSSTMTCMKDTYLVHLTCSSSKTAREDLESVVKKLFTPYTETEINEEELTKPRLLWALYFNMRDSSGISRSSYNGLPSNVYVCSGPDCGLGNEHAVKQAETLFQEIFPTEEFCPPPPNPEDIIFDGDDKQPEAPGTNNVVMAKLESSEESKNLESPEKHLQN
notes: choroideremia-like (CHML, REP2)
For B1, the Kd (in general, the equilibrium constant for the complex coming apart) was roughly 0.36 nM.
